# From patent publication US20220153835A1
# B1: murine anti-LAG-3 mAb BAP050 (antibody, V domains shown)
# VH: QIQLVQSGPELKKPGETVKISCKASGFTLTNYGMNWVRQTPGKGLKWMGWINTDTGEPTYADDFKGRFAFSLETSASTASLQINNLKNADTATYFCARNPPYYYGTNNAEAMDYWGQGTAVTVSS
# VL: DIQMTQTTSSLSASLGDRVTISCSSSQDISNYLNWYQQKPDGTVKVLIYYTSTLHLGVPSRFSGSGSGTDYSLTISNLELEDIATYYCQQYYNLPWTFGGGTKLEIK
# Assays:
# [1] = molecular target: LAG-3 expressed on cells (species not stated at the experiment) (human) (UniProt P18627)
# [2] = molecular target: LAG-3-huIgG1 Fc fusion protein; assay: competition binding assay, LAG-3-Ig on Raji cells
binder,measurement,setting,value
B1,"IFN-γ expression, cells stimulated with CMV peptides (fold increase)",[1],1.4
same,"IFN-γ expression, cells stimulated with Staphylococcal enterotoxin B (SEB) (3 µg/mL) (fold increase)",[1],1.6
same,"IFN-γ expression, cells stimulated with anti-CD3 (0.1 µg/mL) (fold increase)",[1],3
same,IC50,[2],2.3 nM
